Series [1] deals with T1, Qki-5 full-length (UniProt Q9QYS9 1-341).
T1 sequence: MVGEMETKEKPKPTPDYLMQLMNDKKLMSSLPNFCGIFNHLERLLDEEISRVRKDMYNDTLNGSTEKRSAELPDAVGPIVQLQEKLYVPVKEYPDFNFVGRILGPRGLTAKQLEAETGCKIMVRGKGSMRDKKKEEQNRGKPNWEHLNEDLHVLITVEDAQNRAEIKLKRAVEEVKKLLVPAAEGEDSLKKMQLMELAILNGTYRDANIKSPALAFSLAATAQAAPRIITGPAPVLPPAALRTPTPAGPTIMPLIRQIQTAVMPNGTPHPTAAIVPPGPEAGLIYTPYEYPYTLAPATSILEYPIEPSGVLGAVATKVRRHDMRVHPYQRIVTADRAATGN
Kind of series: MST; Kd only in figure; MST: 20 nM Atto488-protein, PBS with Tween-20 (0.1% in 2x protein stock), 25 C; ITC: 50 mM Tris pH 7.5, 150 mM NaCl, 20 C. The note with it: protein: recombinant; tags: N-terminal Trx-His6 (PreScission site); Atto488-NHS labeled for MST; chain copies: 2.

Series [2] has as its target T1, Qki-5 full-length. Kind of series: MST; MST: 20 nM Atto488-protein, PBS with Tween-20 (0.1% in 2x protein stock), 25 C; ITC: 50 mM Tris pH 7.5, 150 mM NaCl, 20 C. The note with it: protein: recombinant; tags: N-terminal Trx-His6 (PreScission site); Atto488-NHS labeled for MST; chain copies: 2.
Series [3] concerns the target T2, Qki-5 STAR domain (UniProt Q9QYS9 7-214).
T2 sequence: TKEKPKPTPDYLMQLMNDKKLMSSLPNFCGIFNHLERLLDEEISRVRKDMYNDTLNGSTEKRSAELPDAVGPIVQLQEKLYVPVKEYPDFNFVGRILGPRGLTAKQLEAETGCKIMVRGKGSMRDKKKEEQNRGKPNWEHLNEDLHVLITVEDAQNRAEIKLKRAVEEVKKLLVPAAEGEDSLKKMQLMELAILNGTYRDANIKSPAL
Nature of the series: ITC; text says KH domain of Qki; assayed construct is STAR; MST: 20 nM Atto488-protein, PBS with Tween-20 (0.1% in 2x protein stock), 25 C; ITC: 50 mM Tris pH 7.5, 150 mM NaCl, 20 C. To be noted: protein: recombinant; tags: N-terminal Trx-His6 (PreScission site); chain copies: 2.

The target in series [4] is T1, Qki-5 full-length. Kind of series: ITC; Kd only in figure; MST: 20 nM Atto488-protein, PBS with Tween-20 (0.1% in 2x protein stock), 25 C; ITC: 50 mM Tris pH 7.5, 150 mM NaCl, 20 C. The note with it: protein: recombinant; tags: N-terminal Trx-His6 (PreScission site); Atto488-NHS labeled for MST; chain copies: 2. (Isothermal titration calorimetry measures the heat released or taken up as one component is titrated into another.)

Series [5] deals with T2, Qki-5 STAR domain. The description is as above. The note with it: protein: recombinant; tags: N-terminal Trx-His6 (PreScission site); chain copies: 2.

Usually Kd stands for the equilibrium constant for the complex coming apart.

In the case of CCTGTAACTGG (ssDNA) [QDE3], the binding result with Qki-5 full-length [1] is given as “binds”.

Regarding CCAGTAACCAG (ssDNA) [QDE1], the Kd came out at 2.01 µM in the series with Qki-5 full-length [2] and 11.9 µM with Qki-5 STAR domain [3].

For GGGGTAAGGGG (ssDNA) [QDE4], the Kd with Qki-5 full-length [2] was 81 µM.

In the case of CTTACGCTAAG (ssDNA) [QDE2], in the series with Qki-5 full-length [1], the binding result is “binds”.

For CUUCUUAAUAUAACUGCCUUAAACUUUAAU (ssRNA) [QRE1], in the series with Qki-5 full-length [1], the binding result is “binds”.

As to UUCACUAACAA (ssRNA) [QRE2], the binding result in the series with Qki-5 full-length [4] and with Qki-5 STAR domain [5] was “binds” each time.

As for CAGATAACGCG (ssDNA) [QDE5], the binding result in the series with Qki-5 full-length [1] is given as “binds”.

For CAGAGCGCGCG (ssDNA) [QDE5-m], in the series with Qki-5 full-length [2], the Kd was 83 µM.

(Values after paper PMC8139980, “Qki activates Srebp2-mediated cholesterol biosynthesis for maintenance of eye lens transparency”.)
